Target: recombinant human PD-L1 protein (Item No. 10084-H08H, Sino Biological) (human) (UniProt Q9NZQ7)
Assay: SPR, Biacore 8K, antibody captured on anti-human chip, huPD-L1 analyte, 1:1 model

Chain of recombinant human PD-L1 protein (Item No. 10084-H08H, Sino Biological) (human) (Q9NZQ7 19-238 limits assumed): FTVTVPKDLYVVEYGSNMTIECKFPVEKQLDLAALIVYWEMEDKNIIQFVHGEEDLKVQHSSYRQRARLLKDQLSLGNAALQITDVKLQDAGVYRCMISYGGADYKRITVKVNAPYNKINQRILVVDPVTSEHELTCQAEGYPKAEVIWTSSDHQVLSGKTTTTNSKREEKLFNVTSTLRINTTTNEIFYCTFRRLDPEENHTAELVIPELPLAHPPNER

MDX 1105 (antibody)
Kd: 0.359 nM | koff: 0.00203 s⁻¹ | kon: 5.65e+06 M⁻¹ s⁻¹

Source: patent publication US20250074988A1
